Results as given in publication PMC4283936.

B1: devR -155 (dsDNA)
DNA 1: GTGCGTGCCGTCATCTGGCCGCCAACGCAA
DNA 2: TTGCGTTGGCGGCCAGATGACGGCACGCAC
B2: espA -215 (dsDNA)
DNA 1: CGCATTGTCGCAGCGCAGTTGCAGGAGGGCAA
DNA 2: TTGCCCTCCTGCAACTGCGCTGCGACAATGCG
B3: fadD21 (dsDNA)
DNA 1: CCTGTTTCAGCACATGCACAGCATTGCA
DNA 2: TGCAATGCTGTGCATGTGCTGAAACAGG
B4: papA4 (dsDNA)
DNA 1: AGTATCACTGCCCGATCACCGGTCGCCC
DNA 2: GGGCGACCGGTGATCGGGCAGTGATACT
B5: devR -116 (dsDNA)
DNA 1: CAGCTGTTCGTCGCGGACTCACACTCCGCGCAC
DNA 2: GTGCGCGGAGTGTGAGTCCGCGACGAACAGCTG
B6: Rv3881c (dsDNA)
DNA 1: ATGGTCACAGTCGGGCCACAGTTCGAG
DNA 2: CTCGAACTGTGGCCCGACTGTGACCAT
B7: pks3 -653 (dsDNA)
DNA 1: GGCGGCCCACTGCGCCTGCACCGCCGTGTTGG
DNA 2: CCAACACGGCGGTGCAGGCGCAGTGGGCCGCC
B8: Rv0520 (dsDNA)
DNA 1: GCCCGCACAGCCACGCCGTAGCACCGGC
DNA 2: GCCGGTGCTACGGCGTGGCTGTGCGGGC
B9: PE8 (dsDNA)
DNA 1: CAGATCACACCGCCATGTCAGCCGCCAA
DNA 2: TTGGCGGCTGACATGGCGGTGTGATCTG
B10: lipF -572 (dsDNA)
DNA 1: AGACGTACAGCAAACTCCCAGTCATACA
DNA 2: TGTATGACTGGGAGTTTGCTGTACGTCT
B11: cyp123 (dsDNA)
DNA 1: AGATCCACCGCCGCATCACATCGGCGAT
DNA 2: ATCGCCGATGTGATGCGGCGGTGGATCT
B12: umaA (dsDNA)
DNA 1: TGACGCAAGGCGAGATCACAGACCGAGA
DNA 2: TCTCGGTCTGTGATCTCGCCTTGCGTCA
B13: devR -146 (dsDNA)
DNA 1: CGTCATCTGGCCGCCAACGCAAAGCCGGGTCA
DNA 2: TGACCCGGCTTTGCGTTGGCGGCCAGATGACG
B14: icl -350 (dsDNA)
DNA 1: GGTTGGTCGACCGCGCTGTTACAACGCTCAC
DNA 2: GTGAGCGTTGTAACAGCGCGGTCGACCAACC
B15: phoP -64 (dsDNA)
DNA 1: GACTGTTAGCAGACTACTGGCAACGAGCTTTC
DNA 2: GAAAGCTCGTTGCCAGTAGTCTGCTAACAGTC
B16: Rv1639c (dsDNA)
DNA 1: CGGATCACAGGAAACCCCCAACAAATCA
DNA 2: TGATTTGTTGGGGGTTTCCTGTGATCCG
B17: icl -400 (dsDNA)
DNA 1: TCATCTCCCACGTTCACCCGGCTGGTTCG
DNA 2: CGAACCAGCCGGGTGAACGTGGGAGATGA
B18: Rv2331 (dsDNA)
DNA 1: GTCCTCGCAGCAAGAAAACAGCGAAAGC
DNA 2: GCTTTCGCTGTTTTCTTGCTGCGAGGAC
B19: icl -343 (dsDNA)
DNA 1: GACCGCGCTGTTACAACGCTCACATATGTGG
DNA 2: CCACATATGTGAGCGTTGTAACAGCGCGGTC
B20: phoP -42 (dsDNA)
DNA 1: ACGAGCTTTCAGGAATTACACAATGACTGTG
DNA 2: CACAGTCATTGTGTAATTCCTGAAAGCTCGT
B21: aroG (dsDNA)
DNA 1: TTCGTCTCATCACGTCCACAGACGATGC
DNA 2: GCATCGTCTGTGGACGTGATGAGACGAA
B22: PPE50 (dsDNA)
DNA 1: CTTTTCACAGCAAAGTCCCAGAAATGGC
DNA 2: GCCATTTCTGGGACTTTGCTGTGAAAAG
B23: Rv3877 (dsDNA)
DNA 1: CTCGGCGCAGCGCGCGCTCAGCGACGCC
DNA 2: GGCGTCGCTGAGCGCGCGCTGCGCCGAG
B24: icl -301 (dsDNA)
DNA 1: CCCAAGGCAGTCGCCTCGCTGTTCAATCTGT
DNA 2: ACAGATTGAACAGCGAGGCGACTGCCTTGGG
B25: pks2 (dsDNA)
DNA 1: AAAGACACAGCTACATCGAAGGATTGCT
DNA 2: AGCAATCCTTCGATGTAGCTGTGTCTTT
B26: Rv3312a (dsDNA)
DNA 1: TGGGTCACAGCGAGTAATCAGCAAGTTC
DNA 2: GAACTTGCTGATTACTCGCTGTGACCCA
B27: wbbL2 (dsDNA)
DNA 1: TGGATCGCTGCCGATACACCGCCGATTT
DNA 2: AAATCGGCGGTGTATCGGCAGCGATCCA
B28: fas (dsDNA)
DNA 1: CGGCGTAGAGCGAATTCCCAGCATAACG
DNA 2: CGTTATGCTGGGAATTCGCTCTACGCCG
B29: phoP -55 (dsDNA)
DNA 1: AGACTACTGGCAACGAGCTTTCAGGAATTACAC
DNA 2: GTGTAATTCCTGAAAGCTCGTTGCCAGTAGTCT
B30: Rv1217c (dsDNA)
DNA 1: GAGGTCGCAGCCGAGCAACAGGTGGCAA
DNA 2: TTGCCACCTGTTGCTCGGCTGCGACCTC
B31: Rv3143 (dsDNA)
DNA 1: AACCGCACAGCCCTCTAACCACTGCTCG
DNA 2: CGAGCAGTGGTTAGAGGGCTGTGCGGTT
B32: sirA (dsDNA)
DNA 1: CGTCTCCCAGCGGATTCCCGGGTCGGCC
DNA 2: GGCCGACCCGGGAATCCGCTGGGAGACG
B33: nuoA -52 (dsDNA)
DNA 1: CCGGTCACCGCCCGGCCGCCGCGCTGGC
DNA 2: GCCAGCGCGGCGGCCGGGCGGTGACCGG
B34: Rv2633c (dsDNA)
DNA 1: TGATTCACAGCTACCTCACATTAATGGG
DNA 2: CCCATTAATGTGAGGTAGCTGTGAATCA
B35: Rv1517 (dsDNA)
DNA 1: CATTTTTCAGCAATTTCTCAGTAACGCT
DNA 2: AGCGTTACTGAGAAATTGCTGAAAAATG
B36: cdh (dsDNA)
DNA 1: GCGAGCAGGGCTGCCGCACAGCGATCTT
DNA 2: AAGATCGCTGTGCGGCAGCCCTGCTCGC
B37: lipF -214 (dsDNA)
DNA 1: GGGCTCCCATCGAGATCACCGAAAGCGG
DNA 2: CCGCTTTCGGTGATCTCGATGGGAGCCC
B38: ptrBa -162 (dsDNA)
DNA 1: TTGTCCGCAGCTGGCTCACCGGCTCCGA
DNA 2: TCGGAGCCGGTGAGCCAGCTGCGGACAA
B39: PPE19 (dsDNA)
DNA 1: CCGTTCTCCGGACAATCACGGCCCGACC
DNA 2: GGTCGGGCCGTGATTGTCCGGAGAACGG
B40: icl +20 (dsDNA)
DNA 1: ACCCCGAAGAGCGCGGAGCAGATCCAGCAGG
DNA 2: CCTGCTGGATCTGCTCCGCGCTCTTCGGGGT
B41: nuoA -63 (dsDNA)
DNA 1: GTCACGGCAGCCCGGTCACCGCCCGGCC
DNA 2: GGCCGGGCGGTGACCGGGCTGCCGTGAC
B42: Rv0964c (dsDNA)
DNA 1: GCGCGCACGGCACACGCACCGCATCGGC
DNA 2: GCCGATGCGGTGCGTGTGCCGTGCGCGC
B43: cfp2 (dsDNA)
DNA 1: TCGCTCACAGCTACGACACAGACTTGCC
DNA 2: GGCAAGTCTGTGTCGTAGCTGTGAGCGA
B44: cadI (dsDNA)
DNA 1: CGGTACACAGCGCTTGCAGGGCTTCAGG
DNA 2: CCTGAAGCCCTGCAAGCGCTGTGTACCG
B45: fbpA (dsDNA)
DNA 1: ATACTGACAGCAAGATCACAATTGAGCC
DNA 2: GGCTCAATTGTGATCTTGCTGTCAGTAT
B46: Rv2010 (dsDNA)
DNA 1: GAACTCGTGGCCGCCGCACAGCGGATGT
DNA 2: ACATCCGCTGTGCGGCGGCCACGAGTTC
B47: hsp (dsDNA)
DNA 1: CCGGACACAGCTAACTCACAACGAAGCA
DNA 2: TGCTTCGTTGTGAGTTAGCTGTGTCCGG
B48: pks3 -236 (dsDNA)
DNA 1: CGACGTCTGGTAGCGGCATGGCAACGGCCTGTG
DNA 2: CACAGGCCGTTGCCATGCCGCTACCAGACGTCG
B49: ptrBa -244 (dsDNA)
DNA 1: ATCTTCACACCGGACTCGTCGCGGTACT
DNA 2: AGTACCGCGACGAGTCCGGTGTGAAGAT

molecular target: PhoP (Mycobacterium tuberculosis, UniProt P71814 1-247); test: ITC

Binder | binding result | Kd [nM]
B1 | no binding | –
B2 | – | 1590 ± 50
B3 | – | 50.3 ± 4.3
B4 | no binding | –
B5 | no binding | –
B6 | – | 714 ± 51
B7 | no binding | –
B8 | – | 472 ± 20
B9 | no binding | –
B10 | – | 115 ± 8
B11 | no binding | –
B12 | – | 1200 ± 58
B13 | no binding | –
B14 | no binding | –
B15 | no binding | –
B16 | – | 198 ± 12
B17 | no binding | –
B18 | – | 130 ± 6.1
B19 | no binding | –
B20 | no binding | –
B21 | – | 1160 ± 41
B22 | – | 45.7 ± 1.7
B23 | – | 1150 ± 66
B24 | no binding | –
B25 | – | 154 ± 12

Binder | binding result | Kd [nM]
B26 | – | 160 ± 8
B27 | no binding | –
B28 | – | 144 ± 6
B29 | – | 104 ± 10
B30 | – | 588 ± 17
B31 | no binding | –
B32 | – | 332 ± 17
B33 | no binding | –
B34 | – | 37 ± 3.7
B35 | no binding | –
B36 | – | 935 ± 52
B37 | no binding | –
B38 | – | 980 ± 77
B39 | no binding | –
B40 | no binding | –
B41 | no binding | –
B42 | – | 4350 ± 189
B43 | – | 21.4 ± 1.6
B44 | – | 403 ± 20
B45 | – | 56.5 ± 2.6
B46 | – | 637 ± 16
B47 | – | 51.5 ± 4.3
B48 | – | 130 ± 11
B49 | no binding | –
